In publication PMC11329700 one finds fold weaker affinity than xA 746-864 and fold lower affinity than xA 746-864 data, which are given here for two substances.

In this assay the target is His-tagged mouse Endophilin A1 SH3 domain (mouse) (UniProt Q62420). As to the kind of experiment: ELISA; His-tagged mouse Endophilin A1 SH3 domain coated onto a 96-well plate, overlaid with increasing concentrations of GST-tagged Dyn1-PRR peptides; two experiments with four replicates each.
Sequence of His-tagged mouse Endophilin A1 SH3 domain (mouse) (Q62420 290-349): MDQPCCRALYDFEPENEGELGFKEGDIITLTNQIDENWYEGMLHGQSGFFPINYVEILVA

“GST-Dyn1xA-PRR 751-798 (domain or fragment)” showed a fold weaker affinity than xA 746-864 of 9 fold.

“GST-Dyn1xB-PRR (dynamin 1xB proline-rich region, amino acids 746-851) (domain or fragment)” had a fold lower affinity than xA 746-864 of 3 fold.
